Data set [1] has as its target T1, OsNAC2 (Oryza sativa L. (rice), UniProt Q7XUV6 1-343).
T1 sequence: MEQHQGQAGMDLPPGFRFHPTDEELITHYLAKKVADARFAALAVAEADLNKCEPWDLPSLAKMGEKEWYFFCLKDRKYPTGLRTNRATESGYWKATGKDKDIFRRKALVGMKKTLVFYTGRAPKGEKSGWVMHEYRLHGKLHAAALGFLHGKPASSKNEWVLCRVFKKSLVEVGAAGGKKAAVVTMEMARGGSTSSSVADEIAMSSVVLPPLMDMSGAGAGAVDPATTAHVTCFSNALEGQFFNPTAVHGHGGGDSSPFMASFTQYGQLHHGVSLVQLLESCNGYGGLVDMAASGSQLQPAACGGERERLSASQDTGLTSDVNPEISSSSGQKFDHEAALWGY
Description: competition EMSA; unlabelled probe weakened binding of FAM probe N1; 50 mM Tris-HCl pH 8.0, 100 mM KCl, 2.5 mM MgCl2, 0.2 mM DTT, 2 ug salmon sperm DNA, 10% glycerol, 20 uL, 25 C 20 min; probe printed as 200 nmol; 10% PAGE, 0.5x. The following applies: protein: recombinant; tags: pET-28a vector tag (BamHI/XhoI); chain copies: 2; blunt.

Data set [2] addresses T1, OsNAC2. The data set is described as follows: EMSA; increasing OsNAC2; 2.5 mM MgCl2; salmon sperm DNA; 50 mM Tris-HCl pH 8.0, 100 mM KCl, 2.5 mM MgCl2, 0.2 mM DTT, 2 ug salmon sperm DNA, 10% glycerol, 20 uL, 25 C 20 min; probe printed as 200 nmol; 10% PAGE, 0.5x. Conditions: protein: recombinant; tags: pET-28a vector tag (BamHI/XhoI); chain copies: 2; label: FAM; blunt.

Experimental findings from paper PMC6953191, “OsNAC2 integrates auxin and cytokinin pathways to modulate rice root development” are described below.

B1: unlabelled 3x CGGCCACGCA competitor (dsDNA)
DNA 1: CGGCCACGCACGGCCACGCACGGCCACGCA
DNA 2: TGCGTGGCCGTGCGTGGCCGTGCGTGGCCG
For the molecule B1, in the data set with OsNAC2 [1], the binding result is reported as “binds”.

B2: OsCKX4 promoter-derived 3x CGGCCACGCA probe (dsDNA)
DNA 1: B1 DNA 1
DNA 2: B1 DNA 2
As to B2, the binding result in the data set with OsNAC2 [2] is listed as “binds”.
